The values that follow come from US20090208486A1.

This test addresses T1, mouse CXCR3 (mouse) (UniProt O88410).
T1 sequence (looked up): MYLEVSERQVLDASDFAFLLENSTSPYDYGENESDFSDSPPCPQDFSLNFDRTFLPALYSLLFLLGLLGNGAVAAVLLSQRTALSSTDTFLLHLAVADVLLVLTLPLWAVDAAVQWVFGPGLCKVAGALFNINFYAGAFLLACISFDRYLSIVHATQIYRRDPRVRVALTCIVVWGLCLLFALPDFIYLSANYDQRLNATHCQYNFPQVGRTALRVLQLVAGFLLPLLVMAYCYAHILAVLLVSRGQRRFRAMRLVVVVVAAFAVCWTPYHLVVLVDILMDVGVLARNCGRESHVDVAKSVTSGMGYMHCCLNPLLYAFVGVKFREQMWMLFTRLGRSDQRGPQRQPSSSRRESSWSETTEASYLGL
Nature of the test: cell-based or functional assay.

In turn, “recombinant CXCL10 (Peprotech, Inc.) (ligand)” registered a chemokine concentration at which chemotaxis/chemoinvasion responses of B16F10 cells were obtained of 50 to 100 ng/mL.

B1: recombinant CXCL11 (Peprotech, Inc.) (ligand, UniProt O14625 22-94, looked up, species assumed)
C-X-C motif chemokine 11: FPMFKRGRCLCIGPGVKAVKVADIEKASIMYPSNNCDKIEVIITLKENKGQRCLNPKSKQARLIIKKVERKNF
Consider B1, for which the chemokine concentration at which chemotaxis/chemoinvasion responses of B16F10 cells were obtained is 50 to 100 ng/mL.

B2: recombinant CXCL9 (Peprotech, Inc.) (ligand, UniProt P18340 22-126, looked up, species assumed)
C-X-C motif chemokine 9: TLVIRNARCSCISTSRGTIHYKSLKDLKQFAPSPNCNKTEIIATLKNGDQTCLDPDSANVKKLMKEWEKKISQKKKQKRGKKHQKNMKNRKPKTPQSRRRSRKTT
In the case of B2, the chemokine concentration at which chemotaxis/chemoinvasion responses of B16F10 cells were obtained was 50 to 100 ng/mL; the diffusely-stained B16F10 cell population 5 min after CXCL9 (100 ng/ml), phalloidin staining worked out at 22.8%; the increase in intracellular Ca2+ concentration after CXCL9 (300 ng/ml) in CXCR3 antisense-transfectant B16F10 clones (CXCR3 protein reduced to about 20-25%) came out at 5%; the increase in intracellular Ca2+ concentration of B16F10 cells after CXCL9 (300 ng/ml), Fluo-3 AM lay within 15 to 20%. Also, the proportion of actin filament polarized B16F10 cells 5 min after CXCL9 (100 ng/ml), phalloidin staining was 38.4%.
